Positions count from the first letter of the chain named.

Assay [1] deals with T1, Mouse CTGF protein-His tag (mouse, UniProt P29268 26-348).
T1 construct: C-terminal His tag; also called mouse CTGF-his protein; mouse CTGF fusion protein
T1 sequence: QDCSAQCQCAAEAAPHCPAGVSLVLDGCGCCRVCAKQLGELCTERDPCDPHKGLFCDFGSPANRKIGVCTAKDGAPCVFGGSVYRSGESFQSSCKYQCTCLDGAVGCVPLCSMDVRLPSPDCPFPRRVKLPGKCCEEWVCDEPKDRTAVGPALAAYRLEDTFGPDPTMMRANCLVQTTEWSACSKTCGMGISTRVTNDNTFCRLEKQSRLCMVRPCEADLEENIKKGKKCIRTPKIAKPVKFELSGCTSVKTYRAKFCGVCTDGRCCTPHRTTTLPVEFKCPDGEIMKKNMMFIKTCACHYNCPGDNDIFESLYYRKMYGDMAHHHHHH
Description: ELISA, plate coated with mouse CTGF-his. Here is the method: The binding activity of anti-mouse CTGF antibody to mouse CTGF protein was tested by ELISA assay. A 96-well microtiter plate was directly coated with the mouse CTGF fusion protein. The signal strength upon the addition of the antibody was used to determine the binding activity of the antibody to mouse CTGF. The specific experimental procedures were as follows:
The mouse CTGF-his protein was diluted with PBS, pH 7.4 (Shanghai Yuanpei, Cat No. B320) buffer to a concentration of 0.5 μg/ml, added into the 96-well microtiter plate (Corning, Cat No. CLS3590-100EA) at 50 μl/well, and incubated in an incubator at 37° C. for 2 hours. The liquid was removed, 250 μl/well blocking solution (5% skim milk (BD skim milk, Cat No. 232100) diluted in PBS) was added, and incubated in an incubator at 37° C. for 3 hours or at 4° C. overnight (16-18 hours) for blocking. After the blocking was finished, the blocking solution was removed, the plate was washed for 3 times with PBST buffer (PBS containing 0.1% Tween-20, pH 7.4), 50 μl/well of various concentrations of each of the test antibodies (antibodies purified from hybridoma or humanized antibodies) diluted with sample dilution solution were added, and incubated in an incubator at 37° C. for 1 hours. After the incubation was finished, the plate was washed for 3 times with PBST, 50 μl/well of HRP-labeled goat anti-mouse secondary antibody (Jackson Immuno Research, Cat No. 115-035-003) or goat anti-human secondary antibody (Jackson Immuno Research, Cat No. 109-035-003) diluted with sample dilution solution was added, and incubated at 37° C. for 1 hour. The plate was washed for 5 times with PBST, 50 μl/well of TMB chromogenic substrate (KPL, Cat No. 52-00-03) was added, incubated at room temperature for 5-10min, and 50 μl/well of 1 M H₂SO₄ was added to stop the reaction. The absorbance value was read by a microplate reader (Molecular Devices, VERSA max) at a wavelength of 450 nm, and the data was analyzed with GraphPad Prism 5. The binding of CTGF antibody to mouse CTGF protein was calculated as EC50 value.

For assay [2], the target named is T2, human CTGF (antigen of the Biacore assays) (human, UniProt P29279 27-349).
T2 construct: also called antigen human CTGF; human CTGF protein
T2 sequence (looked up): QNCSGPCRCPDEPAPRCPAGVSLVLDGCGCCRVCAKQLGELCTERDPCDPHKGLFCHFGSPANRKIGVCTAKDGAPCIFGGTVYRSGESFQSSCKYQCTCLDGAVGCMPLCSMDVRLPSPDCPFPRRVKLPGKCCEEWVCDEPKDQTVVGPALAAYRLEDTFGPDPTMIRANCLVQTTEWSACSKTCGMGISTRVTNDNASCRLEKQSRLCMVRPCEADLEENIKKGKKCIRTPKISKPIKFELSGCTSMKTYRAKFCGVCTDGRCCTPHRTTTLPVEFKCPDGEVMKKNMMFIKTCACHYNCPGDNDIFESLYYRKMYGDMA
Description: Biacore, CTGF immobilised, antibody 150 µg/ml then 50 nM TGF-β1 (competitor TGF-β1). Here is the method: First, the antigen human CTGF was immobilized onto a CMS biosensor chip (Cat. # BR-1005-30, GE) by amino coupling, with an immobilization level of 1500 RU, and then a high concentration of CTGF antibody (150 μg/ml) was allowed to flow through the surface of the chip for 150 s; 50 nM TGF-β1 protein was injected for 120 s, and the reaction signals were detected in real time with the Biacore T200 instrument to generate a binding and dissociation curve. After the dissociation was completed in each of the experimental cycles, the biosensor chip was washed and regenerated with regeneration buffer.
The resulting experimental data were statistically analyzed with GE Biacore T200 Evaluation version 3.0 software.

B1: Hu164-67wl (antibody, human IgG1, lambda)
heavy: not shown
light: ETVVTQEPSLTVSPGGTVTLTCRSSIGAVTTSNYANWVQQKPGQAFRGLIGGTSNRAPWTPARFSGSLLGGKAALTLSGVQPEDEAEYYCALWYSTHYVFGGGTKLTVLGQPKANPTVTLFPPSSEELQANKATLVCLISDFYPGAVTVAWKADGSPVKAGVETTKPSKQSNNKYAASSYLSLTPEQWKSHRSYSCQVTHEGSTVEKTVAPTEC
Consider B1, for which, in assay [1], the response was half-maximal at 0.049 nM (EC50). In addition, in assay [2], the “Function-blocking percentage (%)” value amounted to 55.5%.

B2: Hu147-12wk (antibody, human IgG1, kappa, V domains shown)
VH: EVQLVESGGGLVQPGGSLRLSCAASGFTFSTYAMNWVRQAPGKGLEWVGRIRTKSNNYATYYADSVKDRFTISRDDSKNSLYLQMNSLKTEDTAVYYCVETGFAYWDQGTLVTVSS
VL: EIVLTQSPATLSLSPGERATLSCSASSSVSYMHWFQQKPGQSPKLLIYSTSNLASGIPARFSGSGSGTDYTLTISSLEPEDFAVYYCQQRSSYPLTFGQGTKLEIKR
For the molecule B2, a half-maximal effect in assay [1] (EC50) was put at 0.249 nM. Also, the “Function-blocking percentage (%)” value in assay [2] came to 51.6%.

B3: Hu147-14wk (antibody, human IgG1, kappa, V domains shown)
VH: B2 VH
VL: DIQMTQSPSSLSASVGDRVTITCSASSSVSYMHWFQQKPGKSPKLLIYSTSNLASGVPSRFSGSGSGTDYTLTISSLQPEDFATYYCQQRSSYPLTFGQGTKLEIKR
Take B3: the EC50 in assay [1] is 0.431 nM. In addition, the “Function-blocking percentage (%)” value in assay [2] came to 50.9%.

B4: Hu147-24wk (antibody, human IgG1, kappa, V domains shown)
VH: B2 VH with S30N, G49A
VL: B3 VL
As to B4, the 50% effective concentration (EC50) in assay [1] was determined as 0.263 nM. Further, the “Function-blocking percentage (%)” value in assay [2] is 52.8%.

B5: Hu147-34wk (antibody, human IgG1, kappa, V domains shown)
VH: B2 VH with T28S, S30N, G49A, K78E, N79S
VL: B3 VL
In assay [1], B5 gave an EC50 of 0.664 nM. Also, the “Function-blocking percentage (%)” value in assay [2] is 56.2%.

B6: Hu147-15wk (antibody, human IgG1, kappa, V domains shown)
VH: B2 VH
VL: B3 VL with M4L, L46W
In assay [1], B6 had an EC50 of 0.159 nM. Besides, the “Function-blocking percentage (%)” value in assay [2] was 52.3%.

(Values after patent publication US20220324953A1 (JIANGSU HENGRUI MEDICINE, published 2022).)
